Experimental data as given in the nanobody polyreactivity screen of Harvey et al. (2022).

Experiment: yeast display, Sf9 membrane polyspecificity reagent, FACS + sequencing; frameworks hold sequencing errors
Summary of the method: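 Sorting gates, low and high (top ~1%), were placed on anti-HA fluorescence to track expression and on streptavidin fluorescence to track reagent binding. A clone's polyreactivity label is taken from the gate it came out of. The reagent was 10% biotinylated, detergent-solubilized Sf9 membrane, applied for 1 hour at 4 °C to galactose-induced yeast display cells.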

Row | Sequence | polyreactivity (PSR sort gate)
1 | QVQLVESGGGLVHAGGSLRLSCSASGYTFAYNAMGWYRQAPGKERELVAAITSRAGSTHYADSVKGRFTISRDNAKNTVYLQMNSLKPEDTAVYYCAAKRYNRLRSYRYSDREDYWGQGTQVSVSS | high polyreactivity
2 | QVKLVASGGGLVQEGGSLRLSCAASGRIFGNYAMGWYRQAPGKERELVAAIDLSGDSTYYADSVKGRFTISRDNAKNTVYLQMNSLKPEDTAVYYCAADPDLLWEYSDGYYGGDGGYWGQGTQVTVSS | low polyreactivity
3 | QVQLVESGGGIVQAGGSLRLSCAASGNTFGYYAMGWYRPAPGKERELVASISYSGGSTYADSVKGRFTISRDNAKNTVYLQMNSLKPEDTAVYYCAADYWIYAADSWVLYDSWGQGTQVTVSS | low polyreactivity
4 | QVQLVESGGGLVQAGGSLRLSCAASGRTFPYNAMGWYRQAPGKERELVAAITQSAGRTYYADSVKGRFTISRDTAKYTVYFQMNSLKPEDTAVYYCNTVTVAYGYTRLYAQYYYWGQGTQVTVSS | high polyreactivity
5 | QVQLVESGGGLVQAGGSLRLSCAASGNIFNGNAMGWYRQAPGKERELVAAIRGNGGITYYADSVKGRFTISRDNAKNTVYLQMNSLKPEDTAVYYCAVRSAWVYGIGRYYWGQGTQVTVSS | high polyreactivity
6 | QVQLVESGGGLVQAGGSLRLSCAASGSIFVSEYVMGWYRQAPGKERELVARIRWSSGSTYYADSVKGRFTISRDNAKNTVYLQMNSLKPEDTAVYYCNKDYYYVIGWTYHRSYHYDYWGQGTQVTVSS | low polyreactivity
7 | QVQLVESGGGLVQAGGSLRLSCAASGSIFRYNAMGWYRQAPGKERELVAAISLNTGSTYYADSVKGRFTISRDNAKNTVYLQMNSLKPEDTAVYYCNADDYTYATYEYDYWGQGTQVTVSS | low polyreactivity
8 | QVQLVESGGGLVQAGGSLRLSCAASGLSFSVYAMGWSRQAPGTERELVASIDLSGGNTYYADSVKGRFTISRDNAKNTVYLQMNSLKPEDTAVYYCAKYNPYYYSFSVWDGGDYWGQGTQVTVSS | low polyreactivity
9 | QVQHVESGGGLVQAGGSLRLSCAASGSIFYVYAMGWYRQAPGKERELVASINKSGGSTYYADSVKGRFTISRDNAKNTVYLQMNSLKPEDTAVYYCAARTGWPRVGFQYPAHVGFDYWGQGTQVTVSS | low polyreactivity
10 | QVQLVESGGGLVHAGGSLRLSCAASGFTFRYGMGWYRQAPRKERELVAAISNTGGSTYYADSVKGRFTISRDNAKNTVYLKMNSLKPEDTSVYYCAAAGGLWWVFYALDYWGQGTQVSVSS | low polyreactivity
11 | QVQLVESGGGLVQAGGSLRLSCAASGRTYNPYAMGWYRQAPGKERELVAVISSIGGSTYADSVTGRFTISRDNAKNTVYLQMNSLKTEDTAVFYCNRATFGQWGGDYWGQGTQVTVSS | high polyreactivity
12 | QVQLVESGGGLVQAGGSLRLSCAASGRINAMGWYRQAPGKERELVAVITLRGGSTYYADSVKGRFTISRDNAKNTVYLQMNSLKPEDTAVYYCAAVYRWPDAKYDYWGQGTQVSVSS | low polyreactivity
13 | QVQLVESGGGLVQAGGSLRLSCAASGLIFPSYAMGWYRQAPGKEMELVAAITFSGSDTNYADSVKGRFTISRDNAKNTVYLQMNSLKPEDTAVAYCAAAYFDFWGWLHDYWGQGTQVTVSS | low polyreactivity
14 | QVQLVESGGGLVQAGGSLRLSCAASGRIFSFYVMGWYRQAPGKERELVAAISLSGGSTYYADSVKGRFTISRDNAMNTVYLQMNSLKPEDTAVYYCNAVLYARQRDRWARYDYWGQGTQVTVSS | high polyreactivity
15 | QVQLVESGGGLVQAGGSLRLSCAASGGTFNTYAMGWYRQAPGKERELVAAITSSGGSTFYADSVKGRFTISRDNAKNTVYLQMNSLKPEDTAVYYCAAKSYWTIVYRHPGYYYWGQGTQVTVSS | low polyreactivity
16 | QVQLVESGGGLVQAGGSLRLSCAASGSTSDINAMGWYRQAPGKERELVAAITSRSGSTYYADSVKGRFTISRDNAKNTVYLQMNSLKPEDTAVYYCAAEYVRFYWYTSDYWGQGTQVTVSS | low polyreactivity
17 | QVQLVESGGGLVQAGGSLRLSCAASGSIFSGNAMGWYRQAAGKERELVAVITYRSSRTYYADSVKGRFTISRDNAKNTVYLQMNSLKPEDTAVYYCAAYSNRVVKGYGYWGQGTQVTVSS | high polyreactivity
